The values that follow come from PMC7941734 (Cell reports, 2021).

This experiment has as its target His6-tagged ASF1A S166E (recombinant) (human, UniProt Q9Y294 1-204, S166E). In words: pull-down.

Chain of His6-tagged ASF1A S166E (recombinant) (Q9Y294 whole entry S166E): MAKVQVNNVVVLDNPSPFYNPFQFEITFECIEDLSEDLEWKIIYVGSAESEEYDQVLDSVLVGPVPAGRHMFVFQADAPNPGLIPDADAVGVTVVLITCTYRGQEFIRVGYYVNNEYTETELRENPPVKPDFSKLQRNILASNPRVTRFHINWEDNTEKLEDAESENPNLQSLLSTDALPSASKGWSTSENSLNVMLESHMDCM

B1: GST-tagged FHA domain of MDC1 (aa 1–158) (domain or fragment, human, UniProt Q14676 1-158, looked up)
chain: MEDTQAIDWDVEEEEETEQSSESLRCNVEPVGRLHIFSGAHGPEKDFPLHLGKNVVGRMPDCSVALPFPSISKQHAEIEILAWDKAPILRDCGSLNGTQILRPPKVLSPGVSHRLRDQELILFADLLCQYHRLDVSLPFVSRGPLTVEETPRVQGETQ
Consider B1, for which the binding result is recorded as “binds”.
